Measurements as given in patent US20220002384A1 (published 2022).

T1: AXL (R&D Systems cat#154-AL) (UniProt P30530 26-440)
T1 chain: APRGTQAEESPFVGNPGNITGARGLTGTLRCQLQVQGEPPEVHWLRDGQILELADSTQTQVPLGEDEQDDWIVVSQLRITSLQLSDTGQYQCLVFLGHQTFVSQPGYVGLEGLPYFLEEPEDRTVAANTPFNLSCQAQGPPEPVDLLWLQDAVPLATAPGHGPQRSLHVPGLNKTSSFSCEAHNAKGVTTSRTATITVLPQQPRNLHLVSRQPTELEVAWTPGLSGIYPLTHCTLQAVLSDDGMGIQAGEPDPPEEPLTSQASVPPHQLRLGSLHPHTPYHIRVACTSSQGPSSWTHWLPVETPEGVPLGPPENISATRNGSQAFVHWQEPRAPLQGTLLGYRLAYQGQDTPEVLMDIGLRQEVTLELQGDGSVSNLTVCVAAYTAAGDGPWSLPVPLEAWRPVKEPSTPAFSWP

B1: AXL #44 (designed binder)
chain: NVSPPRRARVTDATETTITIRWEGRGVIGFQVDAVPANGQTPIQRTIKPDVRSYTITGLQPGTDYKIYLYTLPNIGTGHFSSSPVVIDAST
B2: AXL #56 (designed binder)
chain: NVSPPRRARVTDATETTITISWRVSPSTVVGLQVDAVPANGQTPIQRTIKPDVRSYTITGLQPGTDYKIYLYTLNVIGGSAHASSPVVIDAST

Biological target: T1, AXL (R&D Systems cat#154-AL)
Experiment: BLI

Row | Binder | Kd
1 | B1 | 4 nM
2 | B2 | 12 nM
